The record followed here is US20110129485A1 (UNIVERSITY OF QUEENSLAND, published 2011).

The target of the test is T1, bovine serum albumin (BSA) (bovine, UniProt P02769 25-607).
T1 construct: Control protein for non-specific adsorption to the ASF-SPR chip
Briefly: SPR, ASF-immobilised chip, BSA in solution. As to the method:
The ASF-SPR chip was prepared starting with a 50 nm gold-coated SF10 glass substrate. The first SAM layer was self-assembled using a mixed ethanolic solution of 5×10⁻⁵ M cysteamine (NH₂ terminated thiol) (Sigma-Aldrich, Sydney, Australia) and 4.5×10⁻⁴ M mercaptoethanol (OH terminated thiol, as spacers) (Sigma-Aldrich, Sydney, Australia) for 15 h at room temperature. The second layer of biotin was introduced by coupling biotin-hexanoic acid (Sigma-Aldrich, Sydney, Australia) with cysteamine by activating 1 mg/ml biotin-hexanoic acid in PBS (prepared from a 6 mg/mL stock in dimethylformamide (DMF, Sigma-Aldrich, Sydney, Australia) with 4 mg/mL of 1-(3-dimethylaminopropy)-3-ethylcarbodiimide hydrochloride (EDC, Sigma-Aldrich, Sydney, Australia) and 0.7 mg/mL of N-hydroxysuccinimide (NHS, Sigma-Aldrich, Sydney, Australia). The third layer (of SA) was constructed by loading 45 μg/mL of SA (Invitrogen, Mount Waverley, Australia) into the flow cell, which specifically binds to biotin. This step took about 10 min to reach equilibrium. The SA layer was then activated by 4 mg/mL EDC and 0.7 mg/mL NHS for 5 min, enabling its carboxylic acid residue to react with the primary amino group of ASF (Sigma-Aldrich, Sydney, Australia). 1.0 mg/mL ASF was used in this step to prepare the fourth layer. […]

T1 sequence (P02769 25-607 limits assumed): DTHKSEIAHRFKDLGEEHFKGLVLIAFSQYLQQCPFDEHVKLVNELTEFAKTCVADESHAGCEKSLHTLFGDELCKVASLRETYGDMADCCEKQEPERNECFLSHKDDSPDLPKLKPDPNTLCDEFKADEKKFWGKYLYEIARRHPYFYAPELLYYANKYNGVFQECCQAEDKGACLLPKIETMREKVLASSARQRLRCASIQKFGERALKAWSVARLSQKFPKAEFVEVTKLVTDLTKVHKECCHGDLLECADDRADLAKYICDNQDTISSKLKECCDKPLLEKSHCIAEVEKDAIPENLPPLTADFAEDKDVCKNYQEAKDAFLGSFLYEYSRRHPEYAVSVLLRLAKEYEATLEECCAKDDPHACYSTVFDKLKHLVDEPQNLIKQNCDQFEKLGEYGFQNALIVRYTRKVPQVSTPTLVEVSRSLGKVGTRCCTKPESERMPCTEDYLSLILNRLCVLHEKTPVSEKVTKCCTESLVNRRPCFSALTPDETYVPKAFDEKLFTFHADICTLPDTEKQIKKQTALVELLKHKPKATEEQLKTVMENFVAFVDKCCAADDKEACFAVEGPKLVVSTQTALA

B1: asialofetuin (ASF) (other, UniProt P12763 19-359, looked up)
chain: IPLDPVAGYKEPACDDPDTEQAALAAVDYINKHLPRGYKHTLNQIDSVKVWPRRPTGEVYDIEIDTLETTCHVLDPTPLANCSVRQQTQHAVEGDCDIHVLKQDGQFSVLFTKCDSSPDSAEDVRKLCPDCPLLAPLNDSRVVHAVEVALATFNAESNGSYLQLVEISRAQFVPLPVSVSVEFAVAATDCIAKEVVDPTKCNLLAEKQYGFCKGSVIQKALGGEDVRVTCTLFQTQPVIPQPQPDGAEAEAPSAVPDAAGPTPSAAGPPVASVVVGPSVVAVPLPLHRAHYDLRHTFSGVASVESSSGEAFHVGKTPIVGQPSIPGGPVRLCPGRIRYFKI
modifications: three triantennary N-link oligosaccharide chains with terminal N-acetyllactosamine (LacNAC) residues and three O-linked disaccharide chains (desialylated)
notes: Immobilised on a home-made SPR chip (thiol-SAM/biotin/streptavidin/ASF) by EDC/NHS coupling to streptavidin; also called asiolofetuin
B1: the binding result was “no binding (tested: 4.4 mg/mL)”.
